According to PMC3212559, “Large-Scale Protein-Protein Interaction Analysis in Arabidopsis Mesophyll Protoplasts by Split Firefly Luciferase Complementation” (PLoS ONE, 2011):

Target: T1, C-terminal domain (CTD) of ARF5-FLucC (Arabidopsis, UniProt P93024 793-902)
T1 construct: In the ARF-ARF tests the same CTD stood both as ARFCTD-FLucC and as ARFCTD-FLucN; one molecule for both; also called ARF5CTD-FLucC; auxin response factor 5; source: Arabidopsis mesophyll protoplasts, transfected, in living cells (SFLC) and in lysate (co-IP); not shown: FLucC (firefly luciferase aa 394-550)
T1 sequence (looked up): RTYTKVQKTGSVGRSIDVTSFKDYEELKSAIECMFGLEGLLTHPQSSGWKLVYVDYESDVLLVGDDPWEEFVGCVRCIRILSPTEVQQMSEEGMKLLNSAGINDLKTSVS
Assay: split reporter (BiFC, NanoBiT); SFLC in living Arabidopsis mesophyll protoplasts: Aux/IAA-FLucN or MYB30-FLucN co-expressed with ARFCTD-FLucC or Aux/IAA-FLucC for 6 hr; 10 µg of each construct, 2×10^4 cells, 96-well plate, D-luciferin; relative activity standardised against ARF5CTD-FLucC + IAA28-FLucN
Conditions: partners not purified

B1: IAA28-FLucN (natural protein, Arabidopsis, UniProt Q9XFM0 1-175, looked up)
chain: MEEEKRLELRLAPPCHQFTSNNNINGSKQKSSTKETSFLSNNRVEVAPVVGWPPVRSSRRNLTAQLKEEMKKKESDEEKELYVKINMEGVPIGRKVNLSAYNNYQQLSHAVDQLFSKKDSWDLNRQYTLVYEDTEGDKVLVGDVPWEMFVSTVKRLHVLKTSHAFSLSPRKHGKE
notes: Arabidopsis transcription repressor IAA28; also called Aux/IAA-FLucN; source: Arabidopsis mesophyll protoplasts, transfected, in living cells; not shown: FLucN (firefly luciferase aa 1-398)
Q: B1 was tested. Which “restored luciferase activity, fold over the negative control MYB30-FLucN + ARF5CTD-FLucC” value did it give?
A: ~350 fold
